Results from US20120178668A1.

T1: NPR-C (rat) (UniProt P41740)
T1 sequence: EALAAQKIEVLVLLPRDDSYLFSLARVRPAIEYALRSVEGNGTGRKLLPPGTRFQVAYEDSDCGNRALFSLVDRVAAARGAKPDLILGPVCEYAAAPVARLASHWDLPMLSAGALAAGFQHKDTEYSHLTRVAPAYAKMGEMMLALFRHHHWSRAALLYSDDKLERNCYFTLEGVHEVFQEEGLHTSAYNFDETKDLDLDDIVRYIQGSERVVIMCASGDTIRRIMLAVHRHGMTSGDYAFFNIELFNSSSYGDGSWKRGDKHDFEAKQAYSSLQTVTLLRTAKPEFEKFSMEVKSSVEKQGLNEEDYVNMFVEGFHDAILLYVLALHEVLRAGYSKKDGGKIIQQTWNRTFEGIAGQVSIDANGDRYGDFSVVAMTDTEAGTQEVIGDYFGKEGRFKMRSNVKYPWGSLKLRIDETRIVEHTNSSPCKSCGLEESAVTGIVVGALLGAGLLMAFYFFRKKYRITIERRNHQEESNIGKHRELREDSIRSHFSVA

T2: NPR-C (rat), P41740
T2 chain: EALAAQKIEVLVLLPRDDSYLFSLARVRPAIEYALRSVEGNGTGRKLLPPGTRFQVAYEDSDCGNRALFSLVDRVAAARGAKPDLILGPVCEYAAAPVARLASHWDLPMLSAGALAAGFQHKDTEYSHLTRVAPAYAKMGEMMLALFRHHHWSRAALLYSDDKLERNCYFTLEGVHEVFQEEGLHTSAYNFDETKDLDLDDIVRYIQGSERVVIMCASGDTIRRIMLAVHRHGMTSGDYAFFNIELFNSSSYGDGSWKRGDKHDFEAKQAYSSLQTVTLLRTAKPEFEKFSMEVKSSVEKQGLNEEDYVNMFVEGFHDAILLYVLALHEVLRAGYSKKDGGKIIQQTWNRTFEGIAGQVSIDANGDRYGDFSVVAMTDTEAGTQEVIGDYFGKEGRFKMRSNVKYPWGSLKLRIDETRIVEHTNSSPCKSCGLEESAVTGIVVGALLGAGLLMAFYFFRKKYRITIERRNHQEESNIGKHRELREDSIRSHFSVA

T3: rat GC-A (rat), P18910
T3 chain: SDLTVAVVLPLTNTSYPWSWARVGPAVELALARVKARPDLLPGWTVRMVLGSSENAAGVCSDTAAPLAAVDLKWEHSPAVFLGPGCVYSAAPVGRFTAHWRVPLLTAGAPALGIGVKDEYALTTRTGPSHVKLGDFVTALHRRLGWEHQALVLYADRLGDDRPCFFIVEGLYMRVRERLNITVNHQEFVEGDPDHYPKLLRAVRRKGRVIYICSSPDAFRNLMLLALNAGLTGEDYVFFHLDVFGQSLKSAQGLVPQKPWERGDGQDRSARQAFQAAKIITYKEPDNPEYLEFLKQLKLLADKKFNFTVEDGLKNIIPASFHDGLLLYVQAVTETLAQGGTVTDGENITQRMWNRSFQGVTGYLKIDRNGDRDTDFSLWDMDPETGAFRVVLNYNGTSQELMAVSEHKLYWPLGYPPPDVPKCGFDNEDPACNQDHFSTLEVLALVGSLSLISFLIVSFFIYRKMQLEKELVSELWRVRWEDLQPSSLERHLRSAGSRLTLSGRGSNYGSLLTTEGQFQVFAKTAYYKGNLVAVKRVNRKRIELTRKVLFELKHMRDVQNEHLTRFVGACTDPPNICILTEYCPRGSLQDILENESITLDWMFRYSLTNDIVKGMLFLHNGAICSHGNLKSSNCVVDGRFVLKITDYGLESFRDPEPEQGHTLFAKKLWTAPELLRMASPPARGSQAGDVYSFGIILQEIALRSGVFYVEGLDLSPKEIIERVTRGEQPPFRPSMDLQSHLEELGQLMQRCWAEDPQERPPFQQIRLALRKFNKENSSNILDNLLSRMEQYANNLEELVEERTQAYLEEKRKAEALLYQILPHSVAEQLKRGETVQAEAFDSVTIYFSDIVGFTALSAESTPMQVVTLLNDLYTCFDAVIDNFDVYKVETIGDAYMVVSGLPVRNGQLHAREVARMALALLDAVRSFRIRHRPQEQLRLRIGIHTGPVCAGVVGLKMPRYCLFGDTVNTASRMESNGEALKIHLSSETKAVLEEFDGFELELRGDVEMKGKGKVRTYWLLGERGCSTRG

T4: Natriuretic Peptide Receptor-A (NPR-A) of MDCK cells (canine (endogenous in MDCK cells)), A0A8I3
T4 chain: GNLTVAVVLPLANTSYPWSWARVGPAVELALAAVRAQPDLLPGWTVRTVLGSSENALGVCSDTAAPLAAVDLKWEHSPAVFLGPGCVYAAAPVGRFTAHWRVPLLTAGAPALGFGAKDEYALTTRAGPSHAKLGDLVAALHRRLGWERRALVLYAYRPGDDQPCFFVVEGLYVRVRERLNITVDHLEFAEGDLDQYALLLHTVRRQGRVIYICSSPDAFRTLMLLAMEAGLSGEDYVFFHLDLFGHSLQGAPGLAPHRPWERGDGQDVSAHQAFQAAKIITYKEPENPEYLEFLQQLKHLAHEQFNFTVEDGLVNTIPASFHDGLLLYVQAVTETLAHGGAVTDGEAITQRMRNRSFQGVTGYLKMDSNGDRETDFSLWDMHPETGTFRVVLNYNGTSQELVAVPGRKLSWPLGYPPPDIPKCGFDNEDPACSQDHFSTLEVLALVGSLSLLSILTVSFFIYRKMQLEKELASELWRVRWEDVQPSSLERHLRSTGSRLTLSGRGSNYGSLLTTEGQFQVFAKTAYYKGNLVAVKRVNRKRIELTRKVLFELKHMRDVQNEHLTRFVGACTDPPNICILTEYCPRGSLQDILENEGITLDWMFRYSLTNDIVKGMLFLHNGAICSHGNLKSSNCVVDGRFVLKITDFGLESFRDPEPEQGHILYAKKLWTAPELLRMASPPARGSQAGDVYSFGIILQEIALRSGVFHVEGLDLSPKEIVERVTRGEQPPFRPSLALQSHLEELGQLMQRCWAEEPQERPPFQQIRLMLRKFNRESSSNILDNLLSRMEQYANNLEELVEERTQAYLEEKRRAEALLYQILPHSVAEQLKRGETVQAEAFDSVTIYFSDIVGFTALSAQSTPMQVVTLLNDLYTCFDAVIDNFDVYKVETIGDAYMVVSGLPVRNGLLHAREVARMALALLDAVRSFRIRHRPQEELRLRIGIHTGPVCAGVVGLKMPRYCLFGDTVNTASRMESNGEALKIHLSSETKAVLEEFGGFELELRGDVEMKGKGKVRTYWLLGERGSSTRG

T5: NPR-A of HeLa cells, P16066
T5 chain: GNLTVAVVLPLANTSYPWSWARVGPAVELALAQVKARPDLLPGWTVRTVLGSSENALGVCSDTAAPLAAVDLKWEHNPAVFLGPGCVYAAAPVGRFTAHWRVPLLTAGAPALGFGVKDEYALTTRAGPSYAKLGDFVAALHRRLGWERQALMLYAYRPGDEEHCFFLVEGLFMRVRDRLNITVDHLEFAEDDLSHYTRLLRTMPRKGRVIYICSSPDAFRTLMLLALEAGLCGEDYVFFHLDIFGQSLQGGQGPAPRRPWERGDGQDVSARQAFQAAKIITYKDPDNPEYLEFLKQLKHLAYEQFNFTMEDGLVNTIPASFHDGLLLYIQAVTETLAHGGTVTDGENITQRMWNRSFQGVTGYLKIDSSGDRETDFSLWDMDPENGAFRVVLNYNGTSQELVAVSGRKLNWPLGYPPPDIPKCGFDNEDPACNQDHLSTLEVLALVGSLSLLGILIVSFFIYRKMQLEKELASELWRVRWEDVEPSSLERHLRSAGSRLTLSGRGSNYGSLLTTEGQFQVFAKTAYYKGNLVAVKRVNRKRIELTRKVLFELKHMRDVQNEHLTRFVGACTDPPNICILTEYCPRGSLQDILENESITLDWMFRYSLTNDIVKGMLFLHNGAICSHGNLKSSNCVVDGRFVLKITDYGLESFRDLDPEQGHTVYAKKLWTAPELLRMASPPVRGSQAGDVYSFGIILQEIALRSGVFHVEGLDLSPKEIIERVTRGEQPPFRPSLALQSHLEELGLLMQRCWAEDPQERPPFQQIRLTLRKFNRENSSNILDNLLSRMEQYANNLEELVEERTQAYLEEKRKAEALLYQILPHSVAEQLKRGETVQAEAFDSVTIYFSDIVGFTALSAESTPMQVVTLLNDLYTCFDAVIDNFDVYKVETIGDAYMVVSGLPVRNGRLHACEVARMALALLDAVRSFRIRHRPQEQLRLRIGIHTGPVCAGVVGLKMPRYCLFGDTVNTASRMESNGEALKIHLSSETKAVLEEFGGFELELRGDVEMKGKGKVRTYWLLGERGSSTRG


What was measured:
Test in all cases: cell-based or functional assay
[1] = target: Natriuretic Peptide Receptor-A (NPR-A) of MDCK cells (canine (endogenous in MDCK cells))
NPR-A of HeLa cells = NPR-A of HeLa cells (UniProt P16066)
rat GC-A (rat) = rat GC-A (rat) (UniProt P18910)
NPR-C (rat) = target: T1, NPR-C (rat)
NPR-C (rat), P41740 = target: T2, NPR-C (rat), P41740
rat GC-A (rat), P18910 = target: T3, rat GC-A (rat), P18910
[2] = target: T4, Natriuretic Peptide Receptor-A (NPR-A) …
[3] = target: T5, NPR-A of HeLa cells, P16066

Row | Molecule | -Log10 EC50 (pEC50) of cGMP accumulation in MDCK cells [1] | EC50 of cGMP accumulation in MDCK cells [1] [µM] | mean relaxation of denuded aortic rings, % of KCl response (% of KCl response) (rat GC-A (rat)) | other results
1 | hBNP (peptide) | 9.16 | 0.000906 | – | -Log10EC50 (pEC50) of cGMP accumulation in HeLa cells (NPR-A of HeLa cells): 6.92; EC50 of cGMP accumulation in HeLa cells (NPR-A of HeLa cells): 0.147 µM
2 | S6, K7-TNPc (peptide) | 7.57 | 0.0524 | 43.8 | –
3 | K7-TNPc (peptide) | 7.44 | 0.0527 | 46.1 | relaxation of denuded aortic rings (rat GC-A (rat)): 50%
4 | P28-TNPc (peptide) | 6 | 1.19 | 52.6 | –
5 | DNP (peptide) | 8.08 | 1.85 | – | -Log10EC50 (pEC50) of cGMP accumulation in HeLa cells (NPR-A of HeLa cells): 9.42; EC50 of cGMP accumulation in HeLa cells (NPR-A of HeLa cells): 0.000392 µM; relaxation of KCl pre-contracted endothelium-denuded rat aortic rings (rat GC-A (rat)): 100%; relaxation of KCl pre-contracted endothelium-intact rat aortic rings (NPR-C (rat)): 100%
6 | rANP (from UniProt P01161 123-150) (peptide) | 8.76 | 0.00847 | – | –
7 | S6, A7-TNPc (peptide) | 6.9 | 0.169 | 43.1 | –
8 | hANP (peptide) | 8.79 | 0.0164 | 66.5 | relaxation of KCl pre-contracted endothelium-denuded rat aortic rings (rat GC-A (rat)): 100%; relaxation of KCl pre-contracted endothelium-intact rat aortic rings (NPR-C (rat)): 100%
9 | R18-TNPc (peptide) | 6.78 | 0.7 | 0.5 | –
10 | Lebetin 2 isoform α (peptide) | 7.64 | 0.0268 | – | –
11 | PNP (peptide) | 6.66 | 0.347 | – | –
12 | R32-TNPc (peptide) | 7.68 | 0.0991 | 66.4 | –
13 | CHA10-TNPc (peptide) | 7.84 | 0.0144 | 64.2 | –
14 | Nle29-TNPc (peptide) | 6.5 | 0.399 | 61 | –
15 | N7D-TNPc (peptide) | 7.58 | 0.0262 | – | –
16 | A7-TNPc (peptide) | 6.87 | 0.161 | 32.9 | –
17 | SDSKIGDGCFGLPLDHIGSVSGLGCNRPVQNRPKK (modifications not checked) [TNPa] | – | – | – | relaxation of KCl pre-contracted endothelium-intact rat aortic rings (NPR-C (rat), P41740): 20%
18 | SDPKIGDGCFGLPLDHIGSVSGLGCNRPVQNRPKK (modifications not checked) [TNPb] | – | – | – | relaxation of KCl pre-contracted endothelium-intact rat aortic rings (NPR-C (rat), P41740): 20%
19 | SDSKIGNGCFGFPLDRIGSVSGLGCNRIMQNPPKKFSGE (modifications not checked) [TNPc] | – | – | – | mean relaxation of denuded aortic rings, % of KCl response (% of KCl response) (rat GC-A (rat), P18910): 55; relaxation of KCl pre-contracted endothelium-denuded rat aortic rings (rat GC-A (rat), P18910): 100%; -Log10 EC50 (pEC50) of cGMP accumulation in MDCK cells [2]: 6.93; EC50 of cGMP accumulation in MDCK cells [2]: 0.184 µM; relaxation of KCl pre-contracted endothelium-intact rat aortic rings (NPR-C (rat), P41740): 100%; EC50 of cGMP accumulation in HeLa cells [3]: 124000 µM
